Experimental findings from patent US20080267971A1 (published 2008) are described below.

Sequences and labels used below:
B1: recombinant human Tie2/Fc fusion protein (Fc fusion, UniProt Q02763 23-745, looked up, not shown: a dimerising Fc or GST)
chain: AMDLILINSLPLVSDAETSLTCIASGWRPHEPITIGRDFEALMNQHQDPLEVTQDVTREWAKKVVWKREKASKINGAYFCEGRVRGEAIRIRTMKMRQQASFLPATLTMTVDKGDNVNISFKKVLIKEEDAVIYKNGSFIHSVPRHEVPDILEVHLPHAQPQDAGVYSARYIGGNLFTSAFTRLIVRRCEAQKWGPECNHLCTACMNNGVCHEDTGECICPPGFMGRTCEKACELHTFGRTCKERCSGQEGCKSYVFCLPDPYGCSCATGWKGLQCNEACHPGFYGPDCKLRCSCNNGEMCDRFQGCLCSPGWQGLQCEREGIQRMTPKIVDLPDHIEVNSGKFNPICKASGWPLPTNEEMTLVKPDGTVLHPKDFNHTDHFSVAIFTIHRILPPDSGVWVCSVNTVAGMVEKPFNISVKVLPKPLNAPNVIDTGHNFAVINISSEPYFGDGPIKSKKLLYKPVNHYEAWQHIQVTNEIVTLNYLEPRTEYELCVQLVRRGEGGEGHPGPVRRFTTASIGLPPPRGLNLLPKSQTTLNLTWQPIFPSSEDDFYVEVERRSVQKSDQQNIKVPGNLTSVLLNNLHPREQYVVRARVNTKAQGEWSEDLTAWTLSDILPPQPENIKISNITHSSAVISWTILDGYSISSITIRYKVQGKNEDQHVDVKIKNATITQYQLKGLEPETAYQVDIFAENNIGSSNPAFSHELVTLPESQAPADLGGGK
notes: Bought fusion protein; also called hTie2/Fc; soluble Tie2/Fc
B2: human Angiopoietin-2 (ligand)
chain: YNNFRKSMDSIGKKQYQVQHGSCSYTFLLPEMDNCRSSSSPYVSNAVQRDAPLEYDDSVQRLQVLENIMENNTQWLMKLENYIQDNMKKEMVEIQQNAVQNQTAVMIEIGTNLLNQTAEQTRKLTDVEAQVLNQTTRLELQLLEHSLSTNKLEKQILDQTSEINKLQDKNSFLEKKVLAMEDKHIIQLQSIKEEKDQLQVLVSKQNSIIEELEKKIVTATVNNSVLQKQQHDLMETVNNLLTMMSTSNSAKDPTVAKEEQISFRDCAEVFKSGHTTNGIYTLTFPNSTEEIKAYCDMEAGGGGWTIIQRREDGSVDFQRTWKEYKVGFGNPSGEYWLGNEFVSQLTNQQRYVLKIHLKDWEGNEAYSLYEHFYLSSEELNYRIHLKGLTGTAGKISSISQPGNDFSTKDGDNDKCICKCSQMLTGGWWFDACGPSNLNGMYYPQRQNTNKFNGIKWYYWKGSGYSLKATTMMIRPADF
notes: Mostly bought recombinant protein (R&D Systems 623-AM/CF, 623-AN; biotinylated BT623) or supernatant of transfected 293F cells; also called Ang-2; rhAng-2

One assay addresses T1, human Angiopoietin-1 (human, UniProt Q15389 20-498, limits assumed).
T1 construct: Bought recombinant protein (R&D Systems 293-AN-025/CF) or supernatant of transfected 293F cells; also called Ang-1; recombinant Ang-1
T1 sequence: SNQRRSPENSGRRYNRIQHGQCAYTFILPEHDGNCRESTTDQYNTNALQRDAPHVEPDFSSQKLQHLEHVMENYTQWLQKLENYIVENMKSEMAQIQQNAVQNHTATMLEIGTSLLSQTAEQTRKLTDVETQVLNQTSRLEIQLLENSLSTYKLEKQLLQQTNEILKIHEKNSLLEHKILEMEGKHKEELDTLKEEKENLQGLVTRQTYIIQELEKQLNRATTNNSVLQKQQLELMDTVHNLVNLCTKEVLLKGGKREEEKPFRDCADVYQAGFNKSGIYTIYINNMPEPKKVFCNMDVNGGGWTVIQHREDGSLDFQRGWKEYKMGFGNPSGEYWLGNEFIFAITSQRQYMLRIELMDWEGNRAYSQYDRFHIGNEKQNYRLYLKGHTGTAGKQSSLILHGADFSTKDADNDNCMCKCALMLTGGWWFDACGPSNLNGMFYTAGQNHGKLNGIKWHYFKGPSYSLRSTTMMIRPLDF
Description: FACS: inhibition of Ang-1 binding to HEK293F/Tie2 cells. The method, then: (§1) Cell suspension of 4 million cells/mL in FACS Buffer were prepared, and then aliquoted to a 96-well polypropylene plate with 50 ul per well. […] Cells were washed by centrifuging the plate at 1,200 rpm for 5 minutes, removing the supernatant by aspirating, and resuspending the cells with 200 ul per well of FACS Buffer. Washing procedures were repeated twice. The cells were then suspended with 100 ul of mouse Anti-6×-Histidine antibody diluted to 2 ug/ml in FACS Buffer, and incubated at room temperature for 30 minutes. After washing, the cells were suspended in 100 ul of PE-conjugated goat anti-mouse-IgG, which was diluted 1:100 in FACS Buffer, for incubation at room temperature for 30 minutes. The volume of the samples were brought to 300 ul with FACS Buffer, and measured with FACS Calibur.
On the technique in general: A flow cytometer gives signals particle by particle.

The assay “human Angiopoietin-2” deals with B2. The assay can be described thus: FACS: inhibition of Ang-2 binding to HEK293F/Tie2 cells. The method, then: as §1
Assay [1] concerns the target B1. Description: FACS competition: binding of His-tagged recombinant human Ang-2 to Tie2 on HEK293F/Tie2 transfectants, soluble Tie2/Fc titrated, n = 3. The method, then: as §1

B1: the EC50 came out at 18.7 nM with human Angiopoietin-1 and 25.7 nM with human Angiopoietin-2.
Regarding B2, the binding result in assay [1] is “binds”.

A word on the EC50: it is the midpoint of the concentration-response curve. A lower EC50 goes with an effect from little substance.
